Data taken from article PMC3934309.

Biological target: DsbC-MPK4 fusion (construct pT7-DsbC-MPK4) (E. coli | Leishmania major) (UniProt P0AEG6)
Experiment: SEC; analytical size exclusion chromatography of the IMAC purified fraction of the uncleaved DsbC-MPK4 fusion; peak at 8.4 ml; apparent molecular weight

DsbC-MPK4 fusion (construct pT7-DsbC-MPK4) (from UniProt P0AEG6 21-236; Q4QD66 1-363)
stoichiometry N: 10
